This experiment concerns the target gp120 YU2 (HIV, type R5 isolate YU2) (UniProt P35961). The experiment is described as follows: SPR, indirect; rising concentrations of mCD4 mixed with unlinked HS12Lb, co-incubated with 40 nM gp120 YU2; readout: gp120 bound to the mAb 17b surface [bottom panel]. (SPR reads the build-up and loss of mass on a sensor chip optically.)

As to miniCD4 peptide (mCD4), the concentration for a half-maximal effect (EC50 (read off the curve)) (as a rule, the concentration needed to bring the measured effect to its halfway point) was 6 nM.
